The values that follow come from the supplement of paper PMC11246515.

A short description of the data set: total protein half-life in vivo (active degradation + dilution); higher = more stable protein.
The mark [1] stands for this setting: E. coli NCM3722 delta-clpP delta-lon delta-hslV, growth: N-lim chemostat, doubling time 6 h.
[2] abbreviates: E. coli NCM3722 delta-clpP, growth: N-lim chemostat, doubling time 6 h.
Where [3] appears, read: E. coli NCM3722 delta-lon, growth: N-lim chemostat, doubling time 6 h.
Where [4] appears, read: E. coli NCM3722 delta-smpB, growth: N-lim chemostat, doubling time 6 h.
[5] abbreviates: wild type E. coli NCM3722, growth: C-lim chemostat, doubling time 12 h.
The mark [6] stands for this setting: wild type E. coli NCM3722, growth: N-lim chemostat, doubling time 12 h.
Where [7] appears, read: E. coli NCM3722 delta-hslV, growth: N-lim chemostat, doubling time 6 h.
The mark [8] stands for this setting: wild type E. coli NCM3722, growth: C-lim chemostat, doubling time 3 h.
Where [9] appears, read: wild type E. coli NCM3722, growth: C-lim chemostat, doubling time 6 h.
Setting [10] is: wild type E. coli NCM3722, growth: N-lim chemostat, doubling time 6 h.
Setting [11] is: wild type E. coli NCM3722, growth: P-lim chemostat, doubling time 6 h.
The mark [12] stands for this setting: wild type E. coli NCM3722, growth: P-lim chemostat, doubling time 12 h.

± gives the standard deviation of the averaged measurements.

Regarding “MKTAKEYSDTAKREVSVDVDALLAAINEISESEVHRSQNDSEHVSVDGREYHTWRELADAFELDIHDFSVSEVNR”, the “total protein half-life in vivo” value is, setting by setting: under setting [1], 4.23 ± 0.73 h; under setting [2], 1.58 h; under setting [3], 0.678 h; under setting [4], 0.551 h; under setting [5], 1.38 h; under setting [6], 1.03 h.

As to “MFDIGFSELLLVFIIGLVVLGPQRLPVAVKTVAGWIRALRSLATTVQNELTQELKLQEFQDSLKKVEKASLTNLTPELKASMDELRQAAESMKRSYVANDPEKASDEAHTIHNPVVKDNEAAHEGVTPAAAQTQASSPEQKPETTPEPVVKPAADAEPKTAAPSPSSSDKP”, the “total protein half-life in vivo” value was 4.29 ± 0.055 h under setting [1]; 5.27 ± 1.5 h under setting [2]; 5.04 ± 0.61 h under setting [7]; 3.92 ± 0.51 h under setting [3]; 4.49 ± 0.26 h under setting [4]; 2.57 ± 0.12 h under setting [8]. In addition, the “total protein half-life in vivo” value reads like this: under setting [9], 4.41 ± 0.55 h; under setting [5], 7 ± 1.1 h; under setting [10], 4.65 ± 0.15 h; under setting [6], 8.87 ± 1.3 h; under setting [11], 4.27 ± 0.49 h; under setting [12], 7.92 ± 0.28 h.

With “MLNRYPLWKYVMLIVVIVIGLLYALPNLFGEDPAVQITGARGVAASEQTLIQVQKTLQEEKITAKSVALEEGAILARFDSTDTQLRAREALMGVMGDKYVVALNLAPATPRWLAAIHAEPMKLGLDLRGGVHFLMEVDMDTALGKLQEQNIDSLRSDLREKGIPYTTVRKENNYGLSITFRDAKARDEAIAYLSKRHPDLVISSQGSNQLRAVMSDARLSEAREYAVQQNINILRNRVNQLGVAEPVVQRQGADRIVVELPGIQDTARAKEILGATATLEFRLVNTNVDQAAAASGRVPGDSEVKQTREGQPVVLYKRVILTGDHITDSTSSQDEYNQPQVNISLDSAGGNIMSNFTKDNIGKPMATLFVEYKDSGKKDANGRAVLVKQEEVINIANIQSRLGNSFRITGINNPNEARQLSLLLRAGALIAPIQIVEERTIGPTLGMQNIEQGLEACLAGLLVSILFMIIFYKKFGLIATSALIANLILIVGIMSLLPGATLSMPGIAGIVLTLAVAVDANVLINERIKEELSNGRTVQQAIDEGYRGAFSSIFDANITTLIKVIILYAVGTGAIKGFAITTGIGVATSMFTAIVGTRAIVNLLYGGKRVKKLSI [P0AG90]”, the “total protein half-life in vivo” value by setting is: under setting [1], 7.05 ± 0.45 h; under setting [2], 6.58 ± 0.21 h; under setting [7], 6.5 ± 0.39 h; under setting [3], 6.33 ± 0.36 h; under setting [4], 5.92 ± 0.46 h; under setting [8], 3.51 ± 0.36 h. Besides, the “total protein half-life in vivo” value reads like this: under setting [9], 5.86 ± 0.32 h; under setting [5], 12.6 ± 2 h; under setting [10], 6.19 ± 0.036 h; under setting [6], 12.1 ± 0.19 h; under setting [11], 6.36 ± 0.41 h; under setting [12], 12.2 ± 0.8 h.

As to “MLNKLSLLLKDAGISLTDHQKNQLIAYVNMLHKWNKAYNLTSVRDPNEMLVRHILDSIVVAPYLQGERFIDVGTGPGLPGIPLSIVRPEAHFTLLDSLGKRVRFLRQVQHELKLENIEPVQSRVEEFPSEPPFDGVISRAFASLNDMVSWCHHLPGEQGRFYALKGQMPEDEIALLPEEYQVESVVKLQVPALDGERHLVVIKANKI [P0A6U5]”, the “total protein half-life in vivo” value under setting [1] stood at 5.85 ± 1.7 h; the “total protein half-life in vivo” value under setting [2] came out at 4.636 ± 0.041 h; the “total protein half-life in vivo” value under setting [3] turned out to be 5.33 ± 0.68 h; the “total protein half-life in vivo” value under setting [4] was 4.48 ± 0.18 h; the “total protein half-life in vivo” value under setting [8] was 3.51 ± 0.68 h; the “total protein half-life in vivo” value under setting [5] worked out at 10.5 ± 1.6 h. The “total protein half-life in vivo” value turned out to be 5.09 ± 0.33 h under setting [10], 8.45 ± 0.31 h under setting [6], 5.87 ± 0.69 h under setting [11] and 13.1 ± 2 h under setting [12].

Turning to “MIKRNLPLMITIGVFVLGYLYCLTQFPGFASTRVICNILTDNAFLGIIAVGMTFVILSGGIDLSVGSVIAFTGVFLAKVIGDFGLSPLLAFPLVLVMGCAFGAFMGLLIDALKIPAFIITLAGMFFLRGVSYLVSEESIPINHPIYDTLSSLAWKIPGGGRLSAMGLLMLAVVVIGIFLAHRTRFGNQVYAIGGNATSANLMGISTRSTTIRIYMLSTGLATLAGIVFSIYTQAGYALAGVGVELDAIASVVIGGTLLSGGVGTVLGTLFGVAIQGLIQTYINFDGTLSSWWTKIAIGILLFIFIALQRGLTVLWENRQSSPVTRVNIAQQ”, the “total protein half-life in vivo” value under setting [8] worked out at 3.66 h and the “total protein half-life in vivo” value under setting [9] came out at 6.05 h.

“MKKMLLATALALLITGCAQQTFTVQNKQTAVAPKETITHHFFVSGIGQKKTVDAAKICGGAENVVKTETQQTFVNGLLGFITLGIYTPLEARVYCSK”: the “total protein half-life in vivo” value by setting is: under setting [1], 6.1 ± 0.25 h; under setting [2], 6.87 h; under setting [7], 6.21 h; under setting [4], 6.05 ± 0.44 h; under setting [8], 3.42 ± 0.22 h; under setting [5], 9.62 ± 2.6 h. The “total protein half-life in vivo” value is, setting by setting: under setting [10], 6.71 ± 0.74 h; under setting [6], 12.4 ± 0.78 h; under setting [11], 6.65 ± 0.69 h; under setting [12], 14.7 ± 0.54 h.

With “MLNAWHLPVPPFVKQSKDQLLITLWLTGEDPPQRIMLRTEHDNEEMSVPMHKQRSQPQPGVTAWRAAIDLSSGQPRRRYSFKLLWHDRQRWFTPQGFSRMPPARLEQFAVDVPDIGPQWAADQIFYQIFPDRFARSLPREAEQDHVYYHHAAGQEIILRDWDEPVTAQAGGSTFYGGDLDGISEKLPYLKKLGVTALYLNPVFKAPSVHKYDTEDYRHVDPQFGGDGALLRLRHNTQQLGMRLVLDGVFNHSGDSHAWFDRHNRGTGGACHNPESPWRDWYSFSDDGTALDWLGYASLPKLDYQSESLVNEIYRGEDSIVRHWLKAPWNMDGWRLDVVHMLGEAGGARNNMQHVAGITEAAKETQPEAYIVGEHFGDARQWLQADVEDAAMNYRGFTFPLWGFLANTDISYDPQQIDAQTCMAWMDNYRAGLSHQQQLRMFNQLDSHDTARFKTLLGRDIARLPLAVVWLFTWPGVPCIYYGDEVGLDGKNDPFCRKPFPWQVEKQDTALFALYQRMIALRKKSQALRHGGCQVLYAEDNVVVFVRVLNQQRVLVAINRGEACEVVLPASPFLNAVQWQCKEGHGQLTDGILALPAISATVWMN”, the “total protein half-life in vivo” value turned out to be 6.31 ± 0.59 h under setting [1]; 6.88 ± 1.2 h under setting [2]; 2.49 ± 0.11 h under setting [7]; 2.59 ± 0.38 h under setting [3]; 2.28 ± 0.031 h under setting [4]; 2.48 ± 0.074 h under setting [8]. For the same sequence, the “total protein half-life in vivo” value came to 3.86 ± 0.075 h under setting [9]; 6.87 ± 1.4 h under setting [5]; 2.18 h under setting [10]; 3.45 ± 0.98 h under setting [6]; 5 ± 0.27 h under setting [11]; 7.49 ± 0.34 h under setting [12].
